Drawing on patent US20170088618A1, this text covers IL-17 and IFN-γ levels, human whole blood assay, EC50 and LogEC50 for two substances.

Assay [1] has as its target human PD-1 expressed on cells (human) (UniProt Q15116). In words: cell-based or functional assay.
Assay [2] addresses cynomolgus PD-1 expressed on cells (cynomolgus) (UniProt B0LAJ3). In words: flow cytometry on CHO cells expressing cynomolgus PD-1; detection with anti-human IgG Fc (PE GeoMFI); fit of a flat control curve. For orientation: In flow cytometry, cells or beads pass a laser one at a time.
Assay [3] concerns the target human PD-1 expressed on cells (human) (UniProt Q15116). In words: flow cytometry on CHO cells expressing human PD-1; detection with anti-human IgG Fc (PE GeoMFI); fit of a flat control curve.

Chain of UniProt Q15116 (Q15116 25-198 limits assumed): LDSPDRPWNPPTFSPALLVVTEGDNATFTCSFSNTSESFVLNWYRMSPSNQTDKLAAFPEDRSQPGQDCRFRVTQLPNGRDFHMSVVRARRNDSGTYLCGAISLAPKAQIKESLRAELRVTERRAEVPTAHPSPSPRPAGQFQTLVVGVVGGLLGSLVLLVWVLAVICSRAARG
Chain of UniProt B0LAJ3 (B0LAJ3 entry or part of it limits assumed): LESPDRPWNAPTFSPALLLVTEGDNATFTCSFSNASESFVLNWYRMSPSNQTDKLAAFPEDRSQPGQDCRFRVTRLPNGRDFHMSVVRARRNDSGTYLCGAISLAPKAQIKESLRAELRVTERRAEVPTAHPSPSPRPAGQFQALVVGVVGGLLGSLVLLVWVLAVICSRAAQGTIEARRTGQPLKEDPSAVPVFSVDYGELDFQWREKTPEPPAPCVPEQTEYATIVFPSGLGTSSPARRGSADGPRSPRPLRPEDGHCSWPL

As for human IgG Fc fragment, in assay [1], the IL-17 and IFN-γ levels, human whole blood assay, EC50 is more than 100 nM.

With huIgG1 Fc, the LogEC50 in assay [2] was -6.89 log10(nM); in assay [3], -7.75 log10(nM).
